What follows are sequences tested on Escherichia coli TOP10 (assay: shrunken log2 fold change of peptide-encoding DNA abundance (4.5 h post-induction vs induction); higher = less antimicrobial activity (less host growth inhibition)). Conditions: time post-induction: 4.5 h; library: site-saturation at positions 5, 18, 19, 20.
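Further: peptides expressed intracellularly from a pBAD plasmid library in pooled LB shake-flask culture, induced with 0.3% L-arabinose, DNA abundance read by NGS, three biological replicates, DESeq2 with apeglm shrinkage.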

Row | Sequence | shrunken log2 fold change
1 | RRIRERPPRLPRPRPRPQCKPRP | -0.276
2 | RRIRERPPRLPRPRPRPQDHPRP | -0.0577
3 | RRIRERPPRLPRPRPRPQEMPRP | -0.391
4 | RRIRERPPRLPRPRPRPQEPPRP | -0.0182
5 | RRIRERPPRLPRPRPRPQETPRP | 0.0209
6 | RRIRERPPRLPRPRPRPQGCPRP | -0.0179
7 | RRIRERPPRLPRPRPRPQGHPRP | -0.0972
8 | RRIRERPPRLPRPRPRPQGMPRP | -0.284
9 | RRIRERPPRLPRPRPRPQGQPRP | -0.0238
10 | RRIRERPPRLPRPRPRPQGSPRP | -0.107
11 | RRIRERPPRLPRPRPRPQGVPRP | 0.0697
12 | RRIRERPPRLPRPRPRPQHPPRP | -0.367
13 | RRIRERPPRLPRPRPRPQIGPRP | -0.0217
14 | RRIRERPPRLPRPRPRPQIMPRP | -0.398
15 | RRIRERPPRLPRPRPRPQIQPRP | 0.136
16 | RRIRERPPRLPRPRPRPQKAPRP | -0.0836
17 | RRIRERPPRLPRPRPRPQLHPRP | -0.216
18 | RRIRERPPRLPRPRPRPQLKPRP | -0.358
19 | RRIRERPPRLPRPRPRPQNKPRP | -0.64
20 | RRIRERPPRLPRPRPRPQNLPRP | -0.375
21 | RRIRERPPRLPRPRPRPQPVPRP | -0.13
22 | RRIRERPPRLPRPRPRPQQNPRP | -0.122

Row | Sequence | shrunken log2 fold change
23 | RRIRERPPRLPRPRPRPQSDPRP | -0.134
24 | RRIRERPPRLPRPRPRPQTKPRP | 0.0765
25 | RRIRERPPRLPRPRPRPQTMPRP | -0.157
26 | RRIRERPPRLPRPRPRPQTVPRP | 0.136
27 | RRIRERPPRLPRPRPRPQYNPRP | -0.927
28 | RRIRERPPRLPRPRPRPQYYPRP | -0.676
29 | RRIRERPPRLPRPRPRPRATPRP | 0.278
30 | RRIRERPPRLPRPRPRPRCGPRP | 0.146
31 | RRIRERPPRLPRPRPRPRDIPRP | -0.0401
32 | RRIRERPPRLPRPRPRPRDYPRP | -0.521
33 | RRIRERPPRLPRPRPRPREQPRP | -0.0138
34 | RRIRERPPRLPRPRPRPRFEPRP | 0.168
35 | RRIRERPPRLPRPRPRPRHLPRP | -0.427
36 | RRIRERPPRLPRPRPRPRKTPRP | 0.318
37 | RRIRERPPRLPRPRPRPRKYPRP | -0.201
38 | RRIRERPPRLPRPRPRPRMYPRP | -0.723
39 | RRIRERPPRLPRPRPRPRQGPRP | 0.235
40 | RRIRERPPRLPRPRPRPRQYPRP | -0.369
41 | RRIRERPPRLPRPRPRPRSPPRP | 0.0194
42 | RRIRERPPRLPRPRPRPRSVPRP | -0.219
43 | RRIRERPPRLPRPRPRPRTIPRP | -0.337
44 | RRIRERPPRLPRPRPRPRTRPRP | 0.12

Row | Sequence | shrunken log2 fold change
45 | RRIRERPPRLPRPRPRPRVHPRP | 0.0407
46 | RRIRERPPRLPRPRPRPRVRPRP | 0.211
47 | RRIRERPPRLPRPRPRPRYSPRP | -0.182
48 | RRIRERPPRLPRPRPRPSCEPRP | -0.668
49 | RRIRERPPRLPRPRPRPSCGPRP | 0.0151
50 | RRIRERPPRLPRPRPRPSCNPRP | -0.0433
51 | RRIRERPPRLPRPRPRPSCVPRP | -0.356
52 | RRIRERPPRLPRPRPRPSEDPRP | -0.0724
53 | RRIRERPPRLPRPRPRPSFMPRP | -0.546
54 | RRIRERPPRLPRPRPRPSGRPRP | 0.226
55 | RRIRERPPRLPRPRPRPSIRPRP | -0.242
56 | RRIRERPPRLPRPRPRPSLAPRP | -0.0635
57 | RRIRERPPRLPRPRPRPSMQPRP | -0.759
58 | RRIRERPPRLPRPRPRPSMSPRP | -0.0748
59 | RRIRERPPRLPRPRPRPSNNPRP | -0.973
60 | RRIRERPPRLPRPRPRPSPFPRP | -0.972
61 | RRIRERPPRLPRPRPRPSPGPRP | -0.00119
62 | RRIRERPPRLPRPRPRPSPMPRP | -0.0654
63 | RRIRERPPRLPRPRPRPSPYPRP | -0.277
64 | RRIRERPPRLPRPRPRPSQNPRP | -0.267
65 | RRIRERPPRLPRPRPRPSQWPRP | -0.176
66 | RRIRERPPRLPRPRPRPSSMPRP | -0.284

Row | Sequence | shrunken log2 fold change
67 | RRIRERPPRLPRPRPRPSVRPRP | -0.148
68 | RRIRERPPRLPRPRPRPSVTPRP | -0.4
69 | RRIRERPPRLPRPRPRPTAIPRP | 0.32
70 | RRIRERPPRLPRPRPRPTCEPRP | -0.122
71 | RRIRERPPRLPRPRPRPTDGPRP | 0.158
72 | RRIRERPPRLPRPRPRPTEIPRP | 0.135
73 | RRIRERPPRLPRPRPRPTENPRP | -0.0185
74 | RRIRERPPRLPRPRPRPTETPRP | -0.00327
75 | RRIRERPPRLPRPRPRPTGDPRP | 0.321
76 | RRIRERPPRLPRPRPRPTHSPRP | -0.335
77 | RRIRERPPRLPRPRPRPTHWPRP | 1.02
78 | RRIRERPPRLPRPRPRPTIRPRP | -0.622
79 | RRIRERPPRLPRPRPRPTMNPRP | -0.19
80 | RRIRERPPRLPRPRPRPTNDPRP | 0.127
81 | RRIRERPPRLPRPRPRPTNRPRP | -0.242
82 | RRIRERPPRLPRPRPRPTPLPRP | 0.0281
83 | RRIRERPPRLPRPRPRPTRNPRP | 0.22
84 | RRIRERPPRLPRPRPRPTSMPRP | -0.713
85 | RRIRERPPRLPRPRPRPTVMPRP | -0.193
86 | RRIRERPPRLPRPRPRPTWVPRP | 0.138
87 | RRIRERPPRLPRPRPRPVALPRP | -0.377
88 | RRIRERPPRLPRPRPRPVATPRP | 0.124

Row | Sequence | shrunken log2 fold change
89 | RRIRERPPRLPRPRPRPVDTPRP | 0.000639
90 | RRIRERPPRLPRPRPRPVDYPRP | 0.0839
91 | RRIRERPPRLPRPRPRPVENPRP | -0.0218
92 | RRIRERPPRLPRPRPRPVESPRP | -0.0262
93 | RRIRERPPRLPRPRPRPVHVPRP | -0.389
94 | RRIRERPPRLPRPRPRPVLQPRP | -0.347
95 | RRIRERPPRLPRPRPRPVMKPRP | -0.236
96 | RRIRERPPRLPRPRPRPVMSPRP | 0.0484
97 | RRIRERPPRLPRPRPRPVPCPRP | -0.193
98 | RRIRERPPRLPRPRPRPVPGPRP | 0.186
99 | RRIRERPPRLPRPRPRPVQHPRP | -0.402
100 | RRIRERPPRLPRPRPRPVRCPRP | 0.162
101 | RRIRERPPRLPRPRPRPVRFPRP | 0.431
102 | RRIRERPPRLPRPRPRPVRIPRP | -0.0343
103 | RRIRERPPRLPRPRPRPVRMPRP | 0.11
104 | RRIRERPPRLPRPRPRPVSGPRP | 0.386
105 | RRIRERPPRLPRPRPRPVSNPRP | -1.12
106 | RRIRERPPRLPRPRPRPVVAPRP | 0.182
107 | RRIRERPPRLPRPRPRPVWQPRP | 0.123
108 | RRIRERPPRLPRPRPRPVYKPRP | -0.348
109 | RRIRERPPRLPRPRPRPWAAPRP | -0.101

From the supplement of paper PMC9112550, “Optimization of the antimicrobial peptide Bac7 by deep mutational scanning” (BMC Biology, 2022)
